According to publication PMC9982576, “Nuclear Fructose‐1,6‐Bisphosphate Inhibits Tumor Growth and Sensitizes Chemotherapy by Targeting HMGB1” (Advanced Science, 2023):
Numbering of substitutions follows the chain as printed. Values belong to the molecule of their own block, whether it stands above or below them.

Columns and labels:
HMGB1 [1] = target: T1, HMGB1 (Homo sapiens, UniProt P09429); test: SPR, inhibition of free HMGB1 binding to chip-anchored HMGB1; conditions: 100 mM Hepes, 50 mM NaCl; 25 °C; HMGB1 self-association
T1 construct: full-length, expressed in and purified from human HEK293 cells; self-associates into oligomers
T1 sequence (P09429 1-215): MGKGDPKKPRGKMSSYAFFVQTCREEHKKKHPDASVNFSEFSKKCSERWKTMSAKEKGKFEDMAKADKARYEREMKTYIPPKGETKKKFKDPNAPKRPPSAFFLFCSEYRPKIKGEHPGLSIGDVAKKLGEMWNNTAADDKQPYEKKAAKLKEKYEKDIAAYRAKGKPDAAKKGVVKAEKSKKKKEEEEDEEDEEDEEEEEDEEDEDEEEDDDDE
From the text: SPR, inhibition of free HMGB1 binding to chip-anchored HMGB1 on HMGB1 | inhibitory efficiency of F1,6P on free HMGB1 binding to chip‐anchored HMGB1

HMGB1 [2] = target: T1, HMGB1; test: isothermal titration calorimetry; assay type: binding; conditions: 100 mM Hepes, 50 mM NaCl; single-site model; allosteric ligand
HMGB1 [3] = target: T1, HMGB1; test: SPR, inhibition of free HMGB1 binding to chip-anchored DNA; conditions: 100 mM Hepes, 50 mM NaCl; 25 °C; unmodified DNA
HMGB1 A-box (aa1–83) = target: T2, HMGB1 A-box (aa1–83) (Homo sapiens, UniProt P09429); test: ITC of A-box with C15 peptide, with or without F1,6P; assay type: binding; conditions: 0.2 mM F1,6P; 100 mM Hepes, 50 mM NaCl; disruption of the A-box - C-tail peptide interaction
T2 construct: A-box domain aa1-83, purified from HEK293 cells; assayed with synthetic C15 peptide (HMGB1 C-tail aa200-214)
T2 sequence (P09429 1-83): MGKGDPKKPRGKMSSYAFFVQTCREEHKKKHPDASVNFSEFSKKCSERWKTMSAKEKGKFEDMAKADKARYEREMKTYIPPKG

[4] = target: GFP(C)-HMGB1-K43/K44A-GFP(N) construct; test: split-GFP fluorescence complementation in HEK293 cells (Cytation cell imaging reader); conditions: each construct normalised to its own 0 mM value (1.0), read off a plot
[5] = target: T3, HMGB1 A-box K43/44A, purified (UniProt P09429 1-83, K43/44A | K43/44A); test: ITC; purified HMGB1 A-box in the cell titrated with free C-tail (15) peptide; 100 mM Hepes, 50 mM NaCl; with or without 0.2 mM F1,6P; single site binding model; conditions: both partners purified
T3 construct: HMGB1 A-box (aa1-83 as told for the wild-type A-box) with K43 and K44 changed to alanine; also called K43/44A A-box; source: HEK293 cells, expressed and purified
T3 sequence (looked up): T2 sequence (P09429 1-83) with K43A, K44A

[6] = target: T4, HMGB1 A-box (aa1–83), purified (UniProt P09429 1-83); test: as above; conditions: both partners purified
T4 construct: HMGB1 A-box, aa1-83; also called HMG A-box; source: HEK293 cells, expressed and purified
T4 sequence (looked up): T2 sequence (P09429 1-83)

IC50 (HMGB1 [1]): 12.7 µM
Kd (HMGB1 [2]): 28.6 µM
IC50 (HMGB1 [3]): 14.1 µM
Molecule: O=P(O)(O)OC[C@H]1OC(O)(COP(=O)(O)O)[C@@H](O)[C@@H]1O (stereo partly drawn) [F1,6P]
ITC of A-box with C15 peptide, with or without F1,6P (HMGB1 A-box (aa1–83)): C15 peptide displayed good affinity for the A‐box, whereas the interaction was highly disrupted by F1,6P

response (relative fluorescence intensity) ([4]; 1 mM F1,6P, parent: est. 0.83): 0.93
response (relative fluorescence intensity) ([4]; 5 mM F1,6P, parent: est. 0.53): 0.92
response (relative fluorescence intensity) ([4]; 10 mM F1,6P, parent: est. 0.38): 0.9
Molecule: GFP(C)-HMGB1(A-B)-linker-HMGB1(C)-GFP(N) fusion protein K43A; K44A

binding result [5]: binds
binding result [6]: binds
B1: C15 peptide (HMGB1 aa200–214) (peptide, UniProt P09429 200-214, looked up)
peptide: EEDEEDEDEEEDDDD
notes: HMGB1 acidic C-tail, aa200-214; also called C-tail (15) peptide; C-tail (15); source: synthetic peptide
